2 sequences from patent US20120214241 can be followed below.

The test system of series [1] is SBS 30888 ZFN. The experiment in a line: cell_activity. As to conditions: paired with 30886 in G2019S heterozygous patient iPSC; pair more specific for G2019S mutant; value is % clones with monoallelic NHEJ (17% biallelic NHEJ).
In series [2] the test system is SBS 30886 ZFN. Put plainly: cell_activity. As to conditions: paired with 30888 in G2019S heterozygous patient iPSC; value is % clones with monoallelic NHEJ (17% biallelic NHEJ).

In turn, “GCAAAGATTGCTGACTACAGCATTGCTC (double strand) [LRRK2 6055G>A (G2019S) target of 30888]” gave an activity in series [1] of 46%. “TGATGGCAGCATTGGGATACAGTGTGAA (double strand) [LRRK2 target of 27865/27866/27867/27868/30886]”: the activity in series [2] came to 46%.
